The text below walks through data of patent US12599645B2, “Antibodies which bind to lysophosphatidic acid receptor 1 (LPAR1)” (DJS ANTIBODIES LTD, priority 2021, dated 2026).

Positions count from the first letter of the chain named. In names and notes the source's numbering stands.

The assay concerns the target LPAR1 (Homo sapiens, UniProt Q92633). The experiment in a line: LPAR1 binding affinity during discovery and affinity maturation, method not stated. Set-up: expressed in transfected cells. The settings on record: stated in words.

LPAR1, sequence (Q92633 whole entry): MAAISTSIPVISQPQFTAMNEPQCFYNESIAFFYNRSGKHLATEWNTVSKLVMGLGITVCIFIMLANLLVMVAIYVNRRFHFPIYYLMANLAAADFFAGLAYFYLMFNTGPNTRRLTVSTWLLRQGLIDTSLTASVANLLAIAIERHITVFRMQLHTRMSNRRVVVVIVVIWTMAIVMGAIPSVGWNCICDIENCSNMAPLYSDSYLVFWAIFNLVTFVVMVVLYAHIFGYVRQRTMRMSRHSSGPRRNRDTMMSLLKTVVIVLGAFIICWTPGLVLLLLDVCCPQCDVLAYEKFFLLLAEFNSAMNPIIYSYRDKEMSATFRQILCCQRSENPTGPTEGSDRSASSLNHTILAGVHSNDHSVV

B1: Antibody 2: Murine germline sequence Antibody 1 was derived from; VH SEQ ID NO: 25, VL SEQ ID NO: 26 (antibody, V domains shown)
VH: QVQLQQSGAELARPGASVKLSCKASGYTFTSYGISWVKQRTGQGLEWIGEIYPRSGNTYYNEKFKGKATLTADKSSSTAYMELRSLTSEDSAVYFCARDYGSSRYAMDYWGQGTSVTVSS
VL: SIVMTQTPKFLPVSAGDRVTMTCKASQSVGNNVAWYQQKPGQSPKLLIYYASNRYTGVPDRFTGSGSGTDFTFTISSVQVEDLAVYFCQQHYSSPLTFGAGTKLELK
For B1, the “binding affinity for LPAR1” value is “extremely low binding affinity”.

B2: Antibody 6: Antibody 5 with LCDR3 reversion N93S; VH SEQ ID NO: 27, VL SEQ ID NO: 32 (antibody, V domains shown)
VH: B1 VH with Y32S, Y52L, N57Y, Y59N, Y100F
VL: B1 VL with G30R, N31Y, Q90H
Consider B2, for which the “binding affinity for LPAR1” value was “large affinity gain”.

B3: Antibody 5: Antibody 3 with VL mutation Q90H; VH SEQ ID NO: 27, VL SEQ ID NO: 31 (antibody, V domains shown)
VH: B1 VH with Y32S, Y52L, N57Y, Y59N, Y100F
VL: B1 VL with G30R, N31Y, Q90H, S93N
With B3, the “binding affinity for LPAR1” value is reported as “improved affinity”.
